Values belong to the molecule of their own block, whether it stands above or below them.
Legend:
[1] = test system: cyp A mRNA in AC 6 cells; test: Northern analysis of cyp A mRNA in AC 6 cells; format: cell-based, murine; conditions: AC 6 cells (FIG. 3)
Procedure: Individual bacterial colonies containing phagemid vectors which had undergone two rounds of subtraction were cultured, and plasmid miniprep DNA was prepared from them by the NaOH/SDS, NaAcetate method. cDNA inserts were isolated by digestion of the plasmid DNA with Stu 1 and Hd III followed by low-melt agarose gel electrophoresis. Inserts were visualized by UV light and excised and purified by organic extraction and precipitation for use as templates for ^32 p probe synthesis. Purified inserts were labeled by random priming in the presence of 50 μCi [alpha-32P] dCTP (Amersham) and were purified by chromatography over a Sephadex G-50 column. AC 6MRNA prepared from IL-1 induced and uninduced cultures was electrophoresed on 1.0% formaldehyde-agarose gels using 0.5 μg RNA/lane as described (Sambrook, 1989). RNA was blotted onto nitrocellulose filters and prehybridized and hybridized in a solution containing 50% formamide, 6×SSC, 5×Denhardt's solution, 5 mM NaPO4, 100 ug/ml sheared, denatured salmon sperm DNA, and 50 ug/ml yeast tRNA. Labeled cDNA probe, prepared as described above, was hybridized for 16 hours at 45° C. […], followed by washing in 0.2×SSC plus 0.1% SDS at 65° C. for 30 minutes. Filters were then placed on film for autoradiographic visualization. […]

[2] = biological target: T1, cyp C:CsA:p55 complex (cyp C-GST fusion protein and 55Kd protein) (Mus musculus, UniProt P30412); test: Cyp C affinity reactions with 35S labeled cell lysate: 55Kd protein; format: binding, murine; conditions: AC 6 cells, 77Kd and 55Kd proteins (FIG. 5)
T1 construct: A portion of the cyp C cDNA encoding aa 16-212 was cloned into the bacterial expression vector pGEX 2T; made in house; host or cells: E. coli MC1061 (cyp C-GST); 55Kd protein from labelled AC 6 cell lysate
T1 sequence (P30412 with tags, fused parts or gaps limits assumed): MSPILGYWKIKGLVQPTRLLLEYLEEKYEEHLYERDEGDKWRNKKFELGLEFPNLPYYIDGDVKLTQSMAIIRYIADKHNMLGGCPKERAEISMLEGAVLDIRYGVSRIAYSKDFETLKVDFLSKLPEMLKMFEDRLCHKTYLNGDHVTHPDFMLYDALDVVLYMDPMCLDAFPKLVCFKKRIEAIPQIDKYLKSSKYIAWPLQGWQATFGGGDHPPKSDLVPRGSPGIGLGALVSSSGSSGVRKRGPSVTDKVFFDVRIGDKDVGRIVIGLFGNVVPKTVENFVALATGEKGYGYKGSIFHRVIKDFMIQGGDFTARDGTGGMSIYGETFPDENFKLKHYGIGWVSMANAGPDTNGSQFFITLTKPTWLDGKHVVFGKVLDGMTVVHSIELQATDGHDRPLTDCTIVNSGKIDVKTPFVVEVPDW
Procedure: (§1) FIG. 6. […] Control samples were incubated with 10 μg of GST. Experimental samples were incubated with 10 μg of cyp C-GST fusion protein plus the indicated drug concentration.
(§2) 10^7 TCA precipitable counts of labeled lysate were used per reaction. Reaction volumes were brought up to 1 ml in lysis buffer. Each reaction was precleared by incubation with 10 μg of glutathione-s-transferase (GST) and 100 μl of 50% glu-ag solution for 2 hours at 4° C. with gentle agitation. Reactions were spun 5 minutes in a microfuge at 4° C., and the pellets were discarded. To the precleared lysates, 10 μg of cyp C fusion protein was added, along with 30 μl of a 50% solution of glu-ag. Reactions were incubated at 4° with gentle agitation for 3-4 hours, at which time tubes were spun 5 minutes in a microfuge at 4° C., and the supernatants were removed. Glu-ag pellets were washed 4× with 1 ml of cold lysis buffer, being transferred to a fresh tube for the final wash. […], and the pellet was resuspended in 50- 100 μl of SDS-PAGE sample buffer containing β-mercaptoethanol. Samples were boiled 5 minutes and loaded onto 9.5% SDS-PAGE gels. Gels were stained/fixed in methanol: acetic acid: coomassie blue, and destained in methanol: acetic acid.

[3] = test system: cyp C mRNA in AC 6 cells; test: Northern analysis of cyp C mRNA in AC 6 cells; format: cell-based, murine
Procedure: Purified inserts were labeled by random priming in the presence of 50 μCi [alpha-32P] dCTP (Amersham) and were purified by chromatography over a Sephadex G-50 column. […] RNA was blotted onto nitrocellulose filters and prehybridized and hybridized in a solution containing 50% formamide, 6×SSC, 5×Denhardt's solution, 5 mM NaPO4, 100 ug/ml sheared, denatured salmon sperm DNA, and 50 ug/ml yeast tRNA. Labeled cDNA probe, prepared as described above, was hybridized for 16 hours at 45° C. for 30 minutes, followed by washing in 0.2×SSC plus 0.1% SDS at 65° C. for 30 minutes. Filters were then placed on film for autoradiographic visualization.
Twenty μg of total RNA from each source was run on a 1.2% agarose formaldehyde gel and blotted onto Genescreen (DuPont) membrane. Filters were hybridized as described above for 18 hours. The final wash conditions were 0.2×SSC, 0.1% SDS at 65° C. […] The autoradiograms presented in the Figure represent exposures of 3 days at -70° C. with an intensifying screen for both the cyp A and the cyp C probes.

[4] = biological target: cyp C:p77 complex (cyp C-GST fusion protein and 77Kd protein) (Mus musculus, UniProt P30412)
cyp C:p77 complex (cyp C-GST fusion protein and 77Kd protein), sequence (P30412 with tags, fused parts or gaps limits assumed): as above
Procedure: as §1, §2

[5] = biological target: cyp C-GST fusion protein (glutathione-s-transferase fused to aa 16-212 of murine cyclophilin C), without CsA (murine)

Molecule: IL-1: hematopoietic and inflammatory cytokine; unpurified recombinant human IL-1 alpha used for induction of AC 6 cells
elevation of cyp A mRNA in response to IL-1 [1]: elevated approximately three-fold
effect of IL-1 in the culture media during metabolic labeling on the associating proteins [2]: no obvious effect
elevation of cyp C mRNA in response to IL-1 ([3]; AC 6 cells (FIG. 3)): elevated approximately three-fold
induction of cyp C message levels ([3]; AC 6 stromal cell line treated with IL-1): 2-3 fold

effect on the binding of cyp C to the 77Kd protein [4]: no effect
Molecule: C=CC[C@@H]1/C=C(\C)C[C@H](C)C[C@H](OC)[C@H]2O[C@@](O)(C(=O)C(=O)N3CCCC[C@H]3C(=O)O[C@H](/C(C)=C/[C@@H]3CC[C@@H](O)[C@H](OC)C3)[C@H](C)[C@@H](O)CC1=O)[C@H](C)C[C@@H]2OC [FK506]

CsA concentration that completely inhibits the isomerase activity of cyp C [5]: 2 µg/mL
Molecule: cyclosporin A (peptide)

Reference: patent US5447852A, “DNA encoding cyclophilin C, and recombinant methods employing it” (The Board of Trustees of the Leland Stanford Junior …, priority 1993, dated 1995)
